Measurements as given in patent publication US20240116987A1, “POLYPEPTIDE INHIBITORS OF LACTATE DEHYDROGENASE ACTIVITY FOR USE IN CANCER THERAPY” (UNIVERSITÉ CATHOLIQUE DE LOUVAIN, priority 2021, published 2024).

What was measured:
LDH-Htr = target: T1, LDH-Htr (Homo sapiens, UniProt P07195); assay: Microscale thermophoresis (MST) binding to labelled LDH-Htr; conditions: 1.5 s MST on time, n=3, labelled LDH-Htr 100 nM
T1 construct: using the model of dimeric LDH (LDH-Htr); made in house; host or cells: E. coli Rosetta (DE3)
T1 sequence (P07195 21-334): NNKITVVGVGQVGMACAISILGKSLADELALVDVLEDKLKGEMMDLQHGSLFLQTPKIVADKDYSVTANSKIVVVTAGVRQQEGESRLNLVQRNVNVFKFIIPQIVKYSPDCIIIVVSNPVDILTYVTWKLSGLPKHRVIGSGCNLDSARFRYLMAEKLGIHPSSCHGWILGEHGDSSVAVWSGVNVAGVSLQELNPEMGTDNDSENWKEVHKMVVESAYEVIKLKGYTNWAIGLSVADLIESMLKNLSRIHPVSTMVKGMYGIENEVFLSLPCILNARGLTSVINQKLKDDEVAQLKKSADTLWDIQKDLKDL
Method: MST measurements were performed on a Nanotemper® Monolith NT.115 instrument (NanoTemper Technologies®) using Red-dye-NHS fluorescent labelling. LDH-Htr purified to homogeneity was labelled with the Monolith Red-dye-NHS 2nd generation labelling dye (Nanotemper Technologies®), according to the supplied protocol. Measurements were performed in 50 mM sodium phosphate, pH 7.6, and 100 mM NaCl containing 0.01% Tween-20 in standard-treated capillaries (NanoTemper Technologies®). The final concentration of proteins in the assay was 100 nM. Ligands were titrated in 1:1 dilutions following manufacturer's recommendations. Experiments were performed in triplicates using 40% LED power, high MST power, […] and Laser off time 3 s. Poypeptides were evaluated for their thermophoretic pattern, and Kd's were extracted from raw data at a 1.5 s MST on time following the manufacturer's instructions.

tetrameric LDH-5 = tetrameric LDH-5 (Homo sapiens, UniProt P00338); assay: NanoDSF thermal destabilization of tetrameric LDH-5 by peptide; format: binding
Method: (§1) NanoDSF was performed following previously described by Thabault et al. (see above). • a) Variant evaluation Solutions of proteins (LDH-1, LDH-5 or LDH-Htr) with peptides were evaluated on a Tycho NT.6 device (NanoTemper Technologies®). Evaluations were performed in a 50 mM sodium phosphate and 100 mM NaCl pH 7.6 buffer. According to standard manufacturer's procedures, samples were poured into capillaries and treated as above.

dimeric LDH-Htr [1] = target: T2, dimeric LDH-Htr (Homo sapiens, UniProt P07195); assay: NanoDSF thermal shift of dimeric LDH-Htr with peptide; format: binding; conditions: LDH-Htr 15 μM, polypeptide 500 μM, n=3
T2 construct: using the model of dimeric LDH (LDH-Htr); made in house; host or cells: E. coli Rosetta (DE3)
T2 sequence (P07195 21-334): as above
Method: as §1

dimeric LDH-Htr [2] = target: T2, dimeric LDH-Htr; assay: NMR WaterLOGSY with dimeric LDH-Htr; format: binding; conditions: LDH-Htr 15 μM, LP-22 400 μM
Method: Human LDH-H (full length and truncated)-6His proteins for ^1D NMR were expressed and purified from E. coli, as described above. All experiments were performed on an […] system equipped with a broadband cryoprobe (Bruker®) following a previously described in Thabault et al. (see above).
For WaterLOGSY NMR studies, samples were prepared in 10% D2O containing 50 mM sodium phosphate buffer, pH 7.6, and 100 mM NaCl. The concentration of LDHs was ranging from 15 to 20 μM of monomer. Ligand binding was detected using a WaterLOGSY ephogsygpno.2 avance-version sequence with a 1 s mixing time. Water signal suppression was achieved using an excitation-sculpting scheme, and a 50 ms spinlock was used to suppress protein background signals.

[3] = Intrinsic tryptophan fluorescence spectra; format: physicochemical, human; conditions: 1.3 μM, λexc 286 nm, n=6
Method: (§2) All spectrophotometric experiments were performed with opaque 96-well plates using a Spectramax m2e spectrophotometer (Molecular Devices) following previously described in Thabault et al. (see above).
(§3) Intrinsic fluorescence assays: full tryptophan fluorescence spectra were recorded using an excitation wavelength of 286 nm and recording the emission spectra from 320 to 400 nm at room temperature. The raw fluorescence of each experiment was subtracted to a corresponding control experiment without the protein. Experiments were performed in a 50 mM sodium phosphate and 100 mM NaCl, pH 7.6, buffer. For dissociation in subunits, increasing amounts of guanidinium-HCl ranging from 0.3 M to 2 M were put in contact with the studied proteins (1.3 μM), and fluorescence spectra were recorded afterwards.

[4] = NanoDSF thermal denaturation of LDH-H variants; format: physicochemical, human; conditions: for Ratio 350/330 nm (initial): nanoDSF fluorescence ratio; for Tm: means ± SEM, n=6
Method: NanoDSF was performed following previously described by Thabault et al. (see above). • a) Variant evaluation
Solutions of proteins (LDH-H, LDH-Htr, or variants), stored in a 50 mM sodium phosphate, 100 mM NaCl and 20% glycerol, pH 7.6, were evaluated on a Tycho NT.6 device (NanoTemper Technologies®) using concentrations […]. According to standard manufacturer's procedures, samples were poured into capillaries and heated up to 95° C. in 3 min, while following fluorescence emission at 330 and 350 nm. Melting temperatures were extracted from the derivative of the 350/330 nm fluorescence ratios upon increasing temperature. • b) Peptide evaluation

[5] = Chemical denaturation with guanidinium-HCl followed by intrinsic fluorescence; format: physicochemical, human; conditions: protein 1.3 μM, means ± SEM, n=6
Method: as §2, §3

| Compound | Kd (LDH-Htr) [µM] | Destabilizing effect on LDH-5 compared to LDH-1 (tetrameric LDH-5; nanoDSF, tetrameric LDH-5 vs LDH-1) | ΔTm of dimeric LDH-Htr (stabilization) (dimeric LDH-Htr [1]) [°C] | WaterLOGSY saturation transfer with dimeric LDH-Htr (dimeric LDH-Htr [2]) | EC50 (tetrameric LDH-5; LDH-5 300 nM, n=3, read-out: EC50 of ΔTm (destabilization) of tetrameric LDH-5) [µM] | Tryptophan fluorescence intensity compared with LDH-1 [3] | NanoDSF denaturation pattern [4] | Ratio 350/330 nm (initial) [4] | Tm ([4]; nanoDSF) [°C] | EC50 [5] [mM] | Tm difference versus LDH-Htr ([4]; nanoDSF) [°C] |
| --- | --- | --- | --- | --- | --- | --- | --- | --- | --- | --- | --- |
| CSCC[C@H](NC(=O)[C@H](CCC(=O)O)NC(=O)CNC(=O)[C@H](CCCCN)NC(=O)[C@H](CC(C)C)NC(=O)[C@H](CCCCN)NC(=O)[C@H](CC(=O)O)NC(=O)[C@H](CCC(=O)O)NC(=O)[C@@H](N)CC(C)C)C(=O)N[C@@H](CCSC)C(=O)N[C@@H](CC(=O)O)C(=O)N[C@@H](CC(C)C)C(=O)N[C@@H](CCC(N)=O)C(=O)N[C@@H](Cc1c[nH]cn1)C(=O)NCC(=O)N[C@@H](CO)C(=O)N[C@@H](CC(C)C)C(=O)N[C@@H](Cc1ccccc1)C(=O)N[C@@H](CC(C)C)C(=O)N[C@@H](CCC(N)=O)C(=O)N[C@H](C(=O)N1CCC[C@H]1C(N)=O)[C@@H](C)O [LP-22] | 156 | higher destabilizing effect | 2.8 | undergoes a saturation transfer |  |  |  |  |  |  |  |
| Ac-GEMMDLQHGSLFLQTP-NH2 [GP-16] | 240 |  |  |  | 262 |  |  |  |  |  |  |
| E62A: LDH-H recombinant alanine variant E62A of SEQ ID NO: 2 |  |  |  |  |  | decays in fluorescence intensity characteristic of the dimeric forms of LDHs | denaturation patterns comparable to dimeric LDH-Htr | 0.95 | 58.9 ± 0.1 | < 100 |  |
| F72A: LDH-H recombinant alanine variant F72A of SEQ ID NO: 2 |  |  |  |  |  | decays in fluorescence intensity characteristic of the dimeric forms of LDHs | denaturation patterns comparable to dimeric LDH-Htr | 0.94 | 53.9 ± 0.1 | < 100 |  |
| L71A: LDH-H recombinant alanine variant L71A of SEQ ID NO: 2 |  |  |  |  |  | not L71A | a lower initial ratio and a red-shift | 0.90 | 67.1 ± 0.1 | < 100 | 10 |
| LDH-Htr: dimeric model of LDH-H obtained by truncating its N-terminal tetramerization domain [reference compound] |  |  |  |  |  |  | concentration-dependent destabilization | 0.87 | 57.5 ± 0.1 | < 100 |  |
